From patent US20250051426A1 (IGALPHAN, published 2025) come the findings set out here.

For assay [1], the target named is T1, E. coli wild-type SHMT (GST fusion protein) (E. coli, UniProt P0A825 1-417).
T1 construct: Overexpressed in E. coli as a GST fusion, purified and immobilized on the ELISA plate at 2 ug/ml; not shown: Glutathione-S-transferase (GST) fusion partner
T1 sequence: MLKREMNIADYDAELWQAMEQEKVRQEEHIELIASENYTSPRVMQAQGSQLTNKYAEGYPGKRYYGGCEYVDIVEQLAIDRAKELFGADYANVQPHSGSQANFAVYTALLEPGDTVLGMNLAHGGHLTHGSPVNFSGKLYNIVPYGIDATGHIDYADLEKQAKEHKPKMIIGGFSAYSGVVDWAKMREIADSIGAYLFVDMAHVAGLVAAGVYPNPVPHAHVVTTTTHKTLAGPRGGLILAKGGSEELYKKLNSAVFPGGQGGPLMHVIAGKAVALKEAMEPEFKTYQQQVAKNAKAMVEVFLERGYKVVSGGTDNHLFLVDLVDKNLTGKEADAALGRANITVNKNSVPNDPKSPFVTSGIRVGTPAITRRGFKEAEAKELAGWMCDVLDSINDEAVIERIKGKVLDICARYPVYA
Description: ELISA on immobilized GST fusion protein.

In assay [2] the target is T2, E. coli iPGM (E. coli, UniProt P37689 1-514, limits assumed).
T2 sequence (looked up): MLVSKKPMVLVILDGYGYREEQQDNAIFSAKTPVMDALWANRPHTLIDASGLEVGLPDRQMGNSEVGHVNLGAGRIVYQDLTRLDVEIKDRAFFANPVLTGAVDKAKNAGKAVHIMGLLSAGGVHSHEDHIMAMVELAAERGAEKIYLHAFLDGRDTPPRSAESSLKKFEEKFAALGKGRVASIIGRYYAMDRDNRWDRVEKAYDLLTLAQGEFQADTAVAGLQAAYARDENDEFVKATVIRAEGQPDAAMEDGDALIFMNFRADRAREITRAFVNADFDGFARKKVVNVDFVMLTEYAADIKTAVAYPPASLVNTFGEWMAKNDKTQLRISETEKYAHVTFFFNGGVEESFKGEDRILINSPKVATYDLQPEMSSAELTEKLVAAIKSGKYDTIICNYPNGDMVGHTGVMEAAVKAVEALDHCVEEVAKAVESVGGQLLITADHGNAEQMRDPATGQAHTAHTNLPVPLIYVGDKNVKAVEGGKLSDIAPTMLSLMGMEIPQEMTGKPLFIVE
Description: Western blot.

Assay [3] deals with T3, C. difficile iPGM (486-509) (C. difficile).
T3 construct: Expressed as a GST fusion; GST was cleaved off and removed before crystallization
T3 peptide: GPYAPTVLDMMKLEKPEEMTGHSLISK
Description: X-ray crystal structure of the Fab-peptide complex.

Assay [4] concerns the target T4, E. coli SHMT (25-45) (E. coli).
T4 construct: Expressed as a GST fusion; GST was cleaved off and removed before crystallization
T4 peptide: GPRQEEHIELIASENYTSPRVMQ
Description: X-ray crystal structure of the Fab-peptide complex.

Numbering of substitutions follows the chain as printed.

B1: RS_H007_L001 (antibody, V domains shown)
VH: EVQLQQSGSELVKSGASVKLSCTVSGFNFTNYYIHWVRQRTEQGLEWIGRIDPENNQTTYAPKFQGKATMTADTSSNTAYLQLTSLTSEDTAVYYCARSTVLDYWGHGTTLTVSS
VL: DVLMTQSPASLSVSLGDRATISCRASQSIVHTNGNTYLEWYLQKPGQSPKLLIYKVSNRFSGVPDRFSGSGSGTDFILKISRVEAEDLGVYYCFQGSHVPPTFGGGTKLEVK
notes: Mainly dimers
With B1, the binding result in assay [1] is on record as “binds”.

B2: W27 antibody (antibody, V domains shown)
VH: B1 VH with N31D, N56D, Q57E
VL: B1 VL with S7T, A9L, S12P, R18Q, T20S
notes: IgA; also called W27IgA antibody
Consider B2, for which the binding result in assay [2] was “no binding”.

B3: W27G2 antibody (antibody, V domains shown)
VH: B1 VH with N31D, N56D, Q57E
VL: DVLMTQTPLSLPVSLGDQASISCRASQSIVHTNGNTYLEWYLQKPGQSPKLLIYKVSNRFSGVPDRFSGSGSGTDFILKISRVEAEDLGVYYCFQGSHVPPTFGGGTKLEVKR
notes: Mouse IgA produced by a hybridoma; W27G2CHT is the crude hydroxyapatite-purified preparation; W27G2GF is the multimer fraction after gel filtration; also called hybridoma-derived W27G2 antibody; W27G2CHT
Take B3: in assay [1], the binding result was “binds”.

B4: RS_H000_L000GR Fab (Fab, V domains shown)
VH: B1 VH with N31D, N56D, Q57E
VL: B1 VL with S7T, A9L, S12P, R18Q, T20S
notes: Fab made by papain digestion of the W27 recombinant IgG expressed in CHO cells; also called IgG W27 Fab
For B4, the binding result in assay [3] and in assay [4] was “binds” in each case.

B5: RS_H000_L005 (antibody, V domains shown)
VH: B1 VH with N31D, N56D, Q57E
VL: B1 VL with A25S
notes: Mainly dimers
On to B5, for which the binding result in assay [1] was “binds”.

B6: RS_H007_L002 (antibody, V domains shown)
VH: B1 VH
VL: B1 VL with A19V
notes: Mainly dimers
Consider B6, for which the binding result in assay [1] is given as “binds”.

B7: RS_H007_L004 (antibody, V domains shown)
VH: B1 VH
VL: B1 VL with L11M, A25S
notes: Mainly dimers
For B7, in assay [1], the binding result is on record as “binds”.

B8: RS_H000_L001 (antibody, V domains shown)
VH: B1 VH with N31D, N56D, Q57E
VL: B1 VL
notes: Mainly dimers by non-reduced SDS-PAGE
As for B8, in assay [1], the binding result is “binds”.

B9: RS_H007_L005 (antibody, V domains shown)
VH: B1 VH
VL: B1 VL with A25S
notes: Mainly dimers
Take B9: in assay [1], the binding result is “binds”.
